Experimental data from patent publication US20170281764A1 (JN BIOSCIENCES, published 2017).

Assays:
[1] = molecular target: T1, extracellular region of human TIGIT fused to FLAG and GPI (hTIGIT-GPI), on the surface of NS0 cells (human); assay: flow cytometry, competition with hCD155-Fc for NS0-hTIGIT cells
T1 construct: The GPI signal is processed when the anchor is attached; also called NS0-hTIGIT cells
T1 chain: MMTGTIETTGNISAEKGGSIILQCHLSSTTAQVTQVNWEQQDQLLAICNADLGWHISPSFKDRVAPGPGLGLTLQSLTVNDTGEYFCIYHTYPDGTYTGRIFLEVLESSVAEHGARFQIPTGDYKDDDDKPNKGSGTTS
Procedure: The activity of TIG1, TIG2 and TIG3 to block the interaction between TIGIT and CD155 was analyzed by flow cytometry. NS0-hTIGIT cells were incubated with a sub-saturating concentration of hCD155-Fc in the presence (or absence) of various concentrations of an anti-TIGIT monoclonal antibody as a competitor. Detection of hCD155-Fc bound to NS0-hTIGIT cells was performed with DyLight488-labeled goat anti-human IgG, Fc-specific antibody (Jackson ImmunoResearch, West Grove, Pa.).

[2] = molecular target: T2, TIGIT-Fc fusion protein with the N37A mutation (human); assay: ELISA, mutant TIGIT-Fc captured by anti-human Fc, antibody at 200 ng/ml, wild type TIGIT-Fc = 100 %
T2 construct: also called pFCm179-N37A product
Procedure: (§1) Binding of each of mouse TIG1, TIG2 and TIG3 antibodies to the TIGIT mutants was examined by ELISA. An ELISA plate was coated with 100 μl/well of goat anti-human IgG Fc-specific polyclonal antibody (Sigma-Aldrich), 1/2,000-diluted in PBS at 4° C. overnight, washed with Wash Buffer, and blocked with 200 μl/well ELISA Buffer for 20 min at room temperature. After washing with Wash Buffer, 0.5 μg/ml of transiently expressed TIGIT-Fc fusion proteins, carrying either the wild-type TIGIT or one of the six TIGIT mutants, in ELISA Buffer (100 μl/well) were applied to the ELISA plate in duplicates for incubation at room temperature for 30 min. As a negative control, culture supernatants of untransfected HEK293 cells were used. After washing with Wash Buffer, 100 μl/well of 200 ng/ml of a test antibody (TIG1, TIG2 or TIG3) in ELISA Buffer (100 μl/well) was applied. After incubating the ELISA plate for 30 min at room temperature and washing with Wash Buffer, bound antibodies were detected using 100 μl/well of HRP-conjugated goat anti-mouse kappa chain polyclonal antibody (Bethyl Laboratories, Montgomery, Tex.), 1/2,000-diluted in ELISA Buffer. After incubating the plate for 0.5 hr at room temperature and washing with Wash Buffer, color development was initiated by adding 100 μl/well of ABTS substrate (Sigma-Aldrich) and stopped with 100 μl/well of 2% oxalic acid. Absorbance was read at 405 nm.
(§2) For each of TIG1, TIG2 and TIG3, the relative binding to each TIGIT mutant was calculated in the following formula. The average absorbance with the wild type TIGIT-Fc fusion proteins [Abs A] was normalized to 100%, and the average absorbance with culture supernatants of untransfected HEK293 cells [Abs B] was normalized to 0%. The average absorbance with a mutant TIGIT-Fc fusion protein [Abs C] was normalized by the following formula: 100×([Abs C]−[Abs B])/([Abs A]−[Abs B]). […] None of the TIGIT mutants used in this assay abolished the binding of TIG2 and TIG3 to TIGIT.

[3] = molecular target: T3, TIGIT-Fc fusion protein with the D51A mutation (human); assay: as above
T3 construct: also called pFCm179-D51A product
Procedure: as §1, §2

[4] = molecular target: T4, TIGIT-Fc fusion protein with the F86A mutation (human); assay: as above
T4 construct: also called pFCm179-F86A product
Procedure: as §1, §2

[5] = molecular target: T5, TIGIT-Fc fusion protein with the Q35A mutation (human); assay: as above
T5 construct: the entry already carries the mutation; also called pFCm179-Q35A product
Procedure: as §1, §2

[6] = molecular target: TIGIT-Fc fusion protein with the E39A mutation (printed Q39A in the text) (human); assay: as above
Procedure: as §1, §2

[7] = molecular target: T6, TIGIT-Fc fusion protein with the N49A mutation (human); assay: as above
T6 construct: also called pFCm179-N49A product
Procedure: as §1, §2

[8] = molecular target: T7, extracellular region of human TIGIT fused to the Fc region of human immunoglobulin gamma-1 chain (hTIGIT-Fc) (human); assay: ELISA, hybridoma screening
T7 construct: also called human TIGIT-Fc fusion protein; wild-type TIGIT-Fc
Source text: Mouse antibodies secreted in culture supernatants of hybridoma cells were subjected to a series of screening to identify the antibodies with the following properties: (1) binding to purified hTIGIT-Fc fusion protein, (2) binding to NS0-hTIGIT cells, (3) non-binding to NS0 cells, (4) binding to CD3+ T cells derived from phytohemagglutinin-treated human peripheral blood mononuclear cells and (5) blocking of the binding of hCD155-Fc fusion protein to NS0-hTIGIT cells. The first property to bind to hTIGIT-Fc was tested by ELISA using HRP-conjugated goat antibodies against mouse kappa and lambda light chains (SouthernBiotech, Birmingham, Ala.) for identification of mouse anti-TIGIT antibodies. The second, third and fourth properties were examined by flow cytometry using PE-labeled goat anti-mouse gamma chain antibody (SouthernBiotech) for detection of cell-bound mouse antibodies. The fifth property was analyzed by flow cytometry as described below. […] TIG1, TIG2 and TIG3 monoclonal antibodies were purified from culture supernatant of hybridoma cells by protein A column chromatography as described above. The isotypes of TIG1, TIG2 and TIG3 are mouse IgG2b/kappa, IgG2a/kappa and IgG2a/kappa, respectively.

[9] = molecular target: T2, TIGIT-Fc fusion protein with the N37A …; assay: ELISA on captured mutant TIGIT-Fc
Procedure: as §1, §2

[10] = molecular target: T3, TIGIT-Fc fusion protein with the D51A …; assay: ELISA on captured mutant TIGIT-Fc
Procedure: as §1, §2

[11] = molecular target: T5, TIGIT-Fc fusion protein with the Q35A …; assay: ELISA on captured mutant TIGIT-Fc
Procedure: as §1, §2

[12] = molecular target: T8, human TIGIT on cells (Jurkat-TIGIT cells; human T cells, NK cells and other blood cells) (human, UniProt Q495A1 22-244); assay: cell-based or functional assay
T8 sequence: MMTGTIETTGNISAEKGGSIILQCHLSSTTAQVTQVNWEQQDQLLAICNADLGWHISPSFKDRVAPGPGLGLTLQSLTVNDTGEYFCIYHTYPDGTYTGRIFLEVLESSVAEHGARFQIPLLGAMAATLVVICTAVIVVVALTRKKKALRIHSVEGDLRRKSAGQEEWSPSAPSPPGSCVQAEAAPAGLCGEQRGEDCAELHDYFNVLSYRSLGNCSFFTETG

IC50 [1]: 0.049 µg/mL | Relative binding to TIGIT (%) [2]: 0.8% | Relative binding to TIGIT (%) [3]: 1.8% | Relative binding to TIGIT (%) [4]: 49.5% | Relative binding to TIGIT (%) [5]: -0.1% | Relative binding to TIGIT (%) [6]: 71.1% | Relative binding to TIGIT (%) [7]: 0.5% | binding result [8]: binds | binding result [9]: no binding | binding result [10]: no binding | binding result [11]: no binding
B1: TIG1 mouse anti-human TIGIT monoclonal antibody (antibody, mouse IgG2b, V domains shown)
VH: DVQLVESGGGLVQPGGSRKLSCAASGFTFSNFGMHWVRQAPEKGLEWVAFISSGSSSIYYADTVKGRFTISRDNPKNTLFLQMTSLRSEDTAMYYCARMRLDYYAMDYWGQGTSVTVSS
VL: DVQITQSPSYLAASPGETITINCRASKSISKYLAWYQEKPGKTNKLLIYSGSTLQSGIPSRFSGSGSGTDFTLTISSLEPEDFAMYYCQQHNEYPWTFGGGTKLEIK
notes: also called anti-TIGIT antibody (TIG1)
enhancement of NK cell mediated natural cytotoxicity of K562 cells [12]: 2 fold
